Measurements published in paper PMC3696110, “Hsp70 Oligomerization Is Mediated by an Interaction between the Interdomain Linker and the Substrate-Binding Domain” (PLoS ONE, 2013).
Where “and” joins values, the source holds several entries; their conditions need not be identical. Identical values can stand only once.

Columns and labels:
[1] = Analytical SEC relative populations of oligomeric forms; assay type: physicochemical, human; details: for Dimer population / Monomer population / Total oligomer population: Superdex 75, 4 °C, 50 mM Tris pH 7.4, 150 mM KCl
Procedure: (§1) Analytical SEC was performed at 4 °C using a Superdex 75 10/300 GL column (GE Healthcare LifeSciences, Little Chalfont, U.K.), which had previously been calibrated using a mixture of standard proteins (Gel Filtration LMW Calibration Kit; GE Healthcare LifeSciences, Little Chalfont, U.K.). Typically, samples of the various constructs contained 70 µM of protein in 50 mM Tris buffer at pH 7.4, with 150 mM KCl, 5 mM MgCl2 and were incubated for 15 min (unless otherwise specified) at room temperature before being loaded onto the column for analysis. To evaluate the reversibility of the oligomerization process, the different elution peaks obtained for each protein variant were subsequently analyzed after concentrating the different fractions using AmiconUltra-0.5, Ultracel-3 Membrane, 3 kDa (Millipore, Bedford, MA, USA). A similar analysis was also performed at 6 µM concentration for all the protein variants to allow for a direct comparison between the results obtained by SEC and MS experiments.
The influence of substrate binding on the oligomerization properties of all the variants was examined by using the well-characterized Hsp70 substrate, the NR peptide (NRLLLTG, Genemed Synthesis Inc., San Antonio, TX, USA). A 14-fold excess of the peptide was added in each case to a fresh protein sample, incubated for 1 h at room temperature, unless otherwise specified, and then loaded onto the Superdex 75 10/300 GL column for analysis. The relative quantities of the different protein species were estimated by analysing the chromatographic profile using a Gaussian function for each elution peak (OriginPro 8, Originlab, Northampton, MA, USA) and measuring the relative area under each peak.

refolded SBD641 = assay: Fluorescence titration of dansyl-NR peptide binding, refolded protein; parameters: species or system human; details: refolded vs native SBD641, fluorescence titration
Procedure: The interaction between the different Hsp70 variants and the NR peptide was studied in 50 mM Tris buffer at pH 7.4, with 150 mM KCl, and 5 mM MgCl2 using fluorescence spectroscopy by titrating different concentrations of chaperone into a solution containing 2 µM dansyl-NR peptide (N-terminally labeled; Genemed Synthesis Inc., San Antonio, TX, USA) after incubating the mixtures for 1 h at 25°C. The concentration of dansyl-NR peptide was calculated using an extinction coefficient at 327 nm of 4300 M^-1.cm^-1 [39]. The fluorescence emission spectrum of each sample was recorded from 400 to 630 nm after excitation at 330 nm, and the data reported correspond to the average intensity at the maximum emission wavelength of two different samples for which ten spectra were recorded. The increase in fluorescence signal was plotted as a function of chaperone concentration (Figure S2), and analyzed assuming single-site binding using the following equation:
ΔF=ΔFmaxΘL=ΔFmax/2LT[(PT+LT+Kd)−(PT+LT+Kd)^2−4PTLT] (1)
where ΘL is the fraction of bound ligand, ΔF is the increase in fluorescence intensity observed at a given concentration of Hsp70 variant, ΔF max is the increase in fluorescence at saturation, L T and P T are the total ligand and protein concentration respectively, and K d is the apparent dissociation constant of the complex. […]

[2] = SEC/DLS of oligomeric species; assay type: physicochemical, human; details: SEC, 20 µM SBD641
Procedure: as §1, with “A similar analysis was also performed at 6 µM concentration for all the protein variants to allow for a direct comparison between the results obtained by SEC and MS experiments.” left out
Dynamic light scattering. Representative size distributions of SBD641 at different protein concentrations in Tris 50 mM, pH 7.4, 150 mM KCl, 5 mM MgCl2 were recorded at 25 °C on the Zetasizer Nano ZS instrument (Malvern Instruments Ltd.) at 633 nm after 1 h of incubation at room temperature. […] Some samples were analyzed after 1 h and 4 h incubation at room temperature and the same intensity size distributions were obtained. The samples were centrifuged for 15 min at 13200 rpm to remove dust particles and the scattered light was detected at an angle of 173°. […]

[3] = nESI-MS relative populations of oligomeric forms; assay type: physicochemical, human; details: 150 mM ammonium acetate
Procedure: Prior to MS analysis, samples were buffer exchanged into 150 mM ammonium acetate, pH 7.4, using Micro Bio-spin 6 columns (Bio-Rad, Digilab Division, Cambridge, MA, USA). For all the experiments protein concentrations ranging from 6 to 18 µM were used. In the case of the substrate binding experiments, proteins were analyzed in the presence of a 1: 1 molar ratio of the NR peptide; this substrate concentration, lower than in the SEC experiments, was chosen to ensure adequate resolution of the various charge state series, which is critical for unambiguous assignment of substrate-bound states. Due to suppression effects during nESI ionization, a relatively limited set of molar ratios could be investigated by in this way.
nESI-MS spectra were obtained according to a previously published protocol on an orthogonal time-of-flight mass spectrometer with a Z-spray source (LCT, Waters, Manchester, UK) in positive ion mode using the following parameters: capillary voltage, 1500 V; sample cone voltage, 120 V (unless otherwise specified); extraction cone voltage, 1V; and ion transfer stage pressure, 8.8 mbar. Spectra were calibrated externally using a 33 mg/ml solution of cesium iodide. Data were acquired and processed with MassLynx software (Waters, Manchester, UK), and are shown with minimal smoothing and without background subtraction. The relative abundances of the different oligomeric states were estimated from the intensities of the most abundant charge states for each construct and are expressed as a percentage of the total intensity.

[4] = 70 µM protein, 5 mM MgCl2, 15 min at room temperature, estimated error 3.5% (SD of 3-4 independent experiments)
[5] = 6-15 µM protein, 5 mM MgCl2, estimated error 3.5% (SD of 3-4 independent experiments)
[6] = 6-15 µM protein, pH 7.4, estimated error 5% (SD of 3-4 independent experiments)

## SBD641: truncated human Hsp70 (384-641), full-length SBD with interdomain linker
[1]; [4]
  Dimer population: 55%
  Monomer population: 23%
  Total oligomer population: 77%
[1]; [5]
  Dimer population: 44%
  Monomer population: 37%
  Total oligomer population: > 50% and 63%
[1]; native SBD641, comparison with refolded
  Monomeric fraction, native protein: 37%
[1]; refolded after thermal denaturation
  Monomeric fraction, refolded protein: 71%
Refolded SBD641
  Affinity of refolded SBD641 for substrate: same affinity as the native protein
[2]
  Oligomer fraction, no NR peptide: ca. 0.7
[3]; [6]
  Dimer population: 40%
  Monomer population: 46%
  Total oligomer population: > 50% and 54%
  Trimer population: 12%
[3]; low μM protein, pH 7.4
  Tetramer population: 2%
